Test results as given in patent US20260274985A1 (MYTHIC THERAPEUTICS, published 2026).

T1: TROP2 on TROP2-positive NCI-H1975 cells (human, UniProt P09758 27-323)
T1 construct: whole, on cells
T1 sequence (looked up): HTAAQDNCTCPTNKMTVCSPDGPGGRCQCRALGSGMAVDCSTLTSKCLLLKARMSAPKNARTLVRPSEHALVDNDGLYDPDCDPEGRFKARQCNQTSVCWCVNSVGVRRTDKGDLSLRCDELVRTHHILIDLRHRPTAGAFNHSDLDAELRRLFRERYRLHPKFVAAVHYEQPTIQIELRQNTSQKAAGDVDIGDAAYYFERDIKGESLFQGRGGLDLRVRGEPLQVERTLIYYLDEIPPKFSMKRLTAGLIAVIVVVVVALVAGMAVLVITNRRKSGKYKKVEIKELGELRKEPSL

T2: Human TROP2 Protein, His Tag (Acro Biosystems) (human, UniProt P09758 27-274)
T2 construct: not shown: His tag
T2 sequence (looked up): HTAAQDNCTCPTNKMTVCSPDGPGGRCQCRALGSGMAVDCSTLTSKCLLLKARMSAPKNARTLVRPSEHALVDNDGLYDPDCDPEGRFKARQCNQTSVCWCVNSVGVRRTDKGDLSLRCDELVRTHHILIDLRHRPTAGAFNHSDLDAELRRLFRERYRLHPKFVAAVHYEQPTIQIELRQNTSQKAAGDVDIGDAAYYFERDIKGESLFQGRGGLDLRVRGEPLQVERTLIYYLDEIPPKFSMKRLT

T3: Human TROP2 Protein, His Tag (Acro Biosystems) (human, UniProt P09758 27-274)
T3 construct: Bought protein; also called TACSTD2; not shown: His tag
T3 sequence: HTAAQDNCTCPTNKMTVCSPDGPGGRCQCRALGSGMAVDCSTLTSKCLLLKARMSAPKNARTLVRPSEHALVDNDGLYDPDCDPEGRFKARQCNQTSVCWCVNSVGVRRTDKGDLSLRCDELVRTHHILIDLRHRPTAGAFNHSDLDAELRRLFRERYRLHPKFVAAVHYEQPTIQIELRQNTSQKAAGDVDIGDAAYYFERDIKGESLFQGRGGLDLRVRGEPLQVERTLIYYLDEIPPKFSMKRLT


How the values were obtained:
[1] = target: T1, TROP2 on TROP2-positive NCI-H1975 cells; experiment: binding to TROP2-positive NCI-H1975 cells at pH 5.4
[2] = target: T1, TROP2 on TROP2-positive NCI-H1975 cells; experiment: binding to TROP2-positive NCI-H1975 cells at pH 6.7
[3] = target: T1, TROP2 on TROP2-positive NCI-H1975 cells; experiment: binding to TROP2-positive NCI-H1975 cells at pH 7.4
[4] = target: T2, Human TROP2 Protein, His Tag (Acro …); experiment: Octet (BLI); antigen and pH not given
[5] = target: T3, Human TROP2 Protein, His Tag (Acro …); experiment: BLI (Octet), antibody on anti-human Fc sensor, human TROP2-His in solution; legend: 3=No binding

Binder	IC50 [1]	IC50 [2]	IC50 [3]	Kd [4]	Octet response at 33.33 nM (Y-Axis) nm [4]	binding result [5]
MYT11635 (antibody, human IgG1, V domains shown, IgG; also called Datopotamab WT; Datopotamab) VH: QVQLVQSGAEVKKPGASVKVSCKASGYTFTTAGMQWVRQAPGQGLEWMGWINTHSGVPKYAEDFKGRVTISADTSTSTAYLQLSSLKSEDTAVYYCARSGFGSSYWYFDVWGQGTLVTVSS VL: DIQMTQSPSSLSASVGDRVTITCKASQDVSTAVAWYQQKPGKAPKLLIYSASYRYTGVPSRFSGSGSGTDFTLTISSLQPEDFAVYYCQQHYITPLTFGQGTKLEIK	0.48 nM	0.54 nM	0.51 nM	1.25 nM	0.13 nm	–
MYT11566 (antibody, human IgG1, V domains shown, IgG; also called Sacituzumab WT; Sacituzumab) VH: QVQLQQSGSELKKPGASVKVSCKASGYTFTNYGMNWVKQAPGQGLKWMGWINTYTGEPTYTDDFKGRFAFSLDTSVSTAYLQISSLKADDTAVYFCARGGFGSSYWYFDVWGQGSLVTVSS VL: DIQLTQSPSSLSASVGDRVSITCKASQDVSIAVAWYQQKPGKAPKLLIYSASYRYTGVPDRFSGSGSGTDFTLTISSLQPEDFAVYYCQQHYITPLTFGAGTKVEIK	1.15 nM	0.94 nM	1.05 nM	0.6 nM	0.157 nm	–
MYT11699 (antibody, V domains shown, IgG; also called Datopotamab LC variant) VH: QVQLVQSGAEVKKPGASVKVSCKASGYTFTTAGMQWVRQAPGQGLEWMGWINTHSGVPKYAEDFKGRVTISADTSTSTAYLQLSSLKSEDTAVYYCARSGFGSSYWYFDVWGQGTLVTVSS VL: DIQMTQSPSSLSASVGDRVTITCKASQDVSTAVAWYQQKPGKAPKLLIYSASYRYTGVPSRFSGSGSGTDFTLTISSLQPEDFAVYYCQQHYHTPLTFGQGTKLEIK	4.58 nM	1.16 nM	0.73 nM	3.52 nM	0.0968 nm	–
MYT13369 (antibody, human IgG1, V domains shown, IgG; also called Sacituzumab HC-LC pairing variant) VH: QVQLQQSGSELKKPGASVKVSCKASGYTFTNYGMNWVKQAPGQGLKWMGWINTYTGEPTYTHDFKGRFAFSLDTSVSTAYLQISSLKADDTAVYFCARGGFGSSYWYFDVWGQGSLVTVSS VL: DIQLTQSPSSLSASVGDRVSITCKASQDVHIAHAWYQQKPGKAPKLLIYSASYRYTGVPDRFSGSGSGTDFTLTISSLQPEDFAVYYCQQHYITPLTFGAGTKVEIK	~25 nM	1.02 nM	0.63 nM	0.14 nM	0.167 nm	–
MYT11670 (antibody, human IgG1, V domains shown, IgG) VH: QVQLVQSGAEVKKPGASVKVSCKASGYTFTTAGMQWVRQAPGQGLEWMGWINTHSGVPKYAEDFKGRVTISADTSTSTAYLQLSSLKSEDTAVYYCARSGFGSHYWYFDVWGQGTLVTVSS VL: DIQMTQSPSSLSASVGDRVTITCKASQDVSTAVAWYQQKPGKAPKLLIYSASYRYTGVPSRFSGSGSGTDFTLTISSLQPEDFAVYYCQQHYITPLTFGQGTKLEIK	1.83 nM	1.42 nM	1.61 nM	10.9 nM	0.0891 nm	–
MYT13370 (antibody, human IgG1, V domains shown, IgG; also called Sacituzumab HC-LC pairing variant) VH: QVQLQQSGSELKKPGASVKVSCKASGYTFTNYGMNWVKQAPGQGLKWMGWINTYTGEPTYTDHFKGRFAFSLDTSVSTAYLQISSLKADDTAVYFCARGGFGSSYWYFDVWGQGSLVTVSS VL: DIQLTQSPSSLSASVGDRVSITCKASQDVHIAHAWYQQKPGKAPKLLIYSASYRYTGVPDRFSGSGSGTDFTLTISSLQPEDFAVYYCQQHYITPLTFGAGTKVEIK	~45 nM	1.86 nM	0.84 nM	1.36 nM	0.155 nm	–
MYT11614 (antibody, human IgG1, V domains shown, IgG; also called Sacituzumab LC variant) VH: QVQLQQSGSELKKPGASVKVSCKASGYTFTNYGMNWVKQAPGQGLKWMGWINTYTGEPTYTDDFKGRFAFSLDTSVSTAYLQISSLKADDTAVYFCARGGFGSSYWYFDVWGQGSLVTVSS VL: DIQLTQSPSSLSASVGDRVSITCKASQDVHIAVAWYQQKPGKAPKLLIYSASYRYTGVPDRFSGSGSGTDFTLTISSLQPEDFAVYYCQQHYITPLTFGAGTKVEIK	~5 nM	1.06 nM	0.82 nM	0.75 nM	0.149 nm	–
MYT12413 (hu7E6SVG variant, HCV substitutions at 33, 106) (antibody, V domains shown) VH: QVQLQESGPGLVKPSETLSLTCTVSGGSISSYHVHWIRQPPGKGLEWIGVIWTSGVTDYNSALMGRVTISVDTSKNQFSLKLSSVTAADTAVYYCARDGDYDRYTHDYWGQGTLVTVSS VL: DIVMTQSPDSLAVSLGERATINCRASKSVSTSGYSYMHWYQQKPGQPPKLLIYLASNLESGVPDRFSGSGSGTDFTLTISSLQAEDVAVYYCQHSRELPYTFGQGTKLEIK	–	–	–	–	–	no binding (tested: 50 nM)
MYT11704 (antibody, human IgG1, V domains shown, IgG; also called hu7E6SVG WT; hu7E6SVG) VH: QVQLQESGPGLVKPSETLSLTCTVSGGSISSYGVHWIRQPPGKGLEWIGVIWTSGVTDYNSALMGRVTISVDTSKNQFSLKLSSVTAADTAVYYCARDGDYDRYTMDYWGQGTLVTVSS VL: DIVMTQSPDSLAVSLGERATINCRASKSVSTSGYSYMHWYQQKPGQPPKLLIYLASNLESGVPDRFSGSGSGTDFTLTISSLQAEDVAVYYCQHSRELPYTFGQGTKLEIK	1.29 nM	0.97 nM	0.98 nM	4.4 nM	0.118 nm	–
MYT12459 (antibody, human IgG1, V domains shown, IgG; also called hu7E6SVG LCC his scan variant) VH: QVQLQESGPGLVKPSETLSLTCTVSGGSISSYGVHWIRQPPGKGLEWIGVIWTSGVTDYNSALMGRVTISVDTSKNQFSLKLSSVTAADTAVYYCARDGDYDRYTMDYWGQGTLVTVSS VL: DIVMTQSPDSLAVSLGERATINCRASKSVSTSGYSYMHWYQQKPGQPPKLLIYLASNLHSGVPDRFSGSGSGTDFTLTISSLQAEDVAVYYCHHSRHLPYTFGQGTKLEIK	~30 nM	1.67 nM	1.42 nM	6.02 nM	0.0906 nm	–
MYT12457 (hu7E6SVG variant, LCV substitutions at 59, 60, 101) (antibody, V domains shown, Full IgG in Expi293 supernatant) VH: QVQLQESGPGLVKPSETLSLTCTVSGGSISSYGVHWIRQPPGKGLEWIGVIWTSGVTDYNSALMGRVTISVDTSKNQFSLKLSSVTAADTAVYYCARDGDYDRYTMDYWGQGTLVTVSS VL: DIVMTQSPDSLAVSLGERATINCRASKSVSTSGYSYMHWYQQKPGQPPKLLIYLASNLHHGVPDRFSGSGSGTDFTLTISSLQAEDVAVYYCQHSRELPYHFGQGTKLEIK	–	–	–	–	–	no binding (tested: 50 nM)
MYT12456 (hu7E6SVG variant, LCV substitutions at 59, 60, 97) (antibody, V domains shown, Full IgG in Expi293 supernatant) VH: QVQLQESGPGLVKPSETLSLTCTVSGGSISSYGVHWIRQPPGKGLEWIGVIWTSGVTDYNSALMGRVTISVDTSKNQFSLKLSSVTAADTAVYYCARDGDYDRYTMDYWGQGTLVTVSS VL: DIVMTQSPDSLAVSLGERATINCRASKSVSTSGYSYMHWYQQKPGQPPKLLIYLASNLHHGVPDRFSGSGSGTDFTLTISSLQAEDVAVYYCQHSRHLPYTFGQGTKLEIK	–	–	–	–	–	no binding (tested: 50 nM)
MYT12458 (hu7E6SVG variant, LCV substitutions at 59, 93, 94 (Ala at 94)) (antibody, V domains shown, Full IgG in Expi293 supernatant) VH: QVQLQESGPGLVKPSETLSLTCTVSGGSISSYGVHWIRQPPGKGLEWIGVIWTSGVTDYNSALMGRVTISVDTSKNQFSLKLSSVTAADTAVYYCARDGDYDRYTMDYWGQGTLVTVSS VL: DIVMTQSPDSLAVSLGERATINCRASKSVSTSGYSYMHWYQQKPGQPPKLLIYLASNLHSGVPDRFSGSGSGTDFTLTISSLQAEDVAVYYCHASRELPYTFGQGTKLEIK	–	–	–	–	–	no binding (tested: 50 nM)
